According to patent US20140245492:

Molecular target: ubiquitin

B1: MBP-AtAIRP2 (fusion of maltose-binding protein and Arabidopsis thaliana ABA Insensitive Ring Protein 2) (protein)
chain: MRKSFKDSLKALEADIQFANTLASEYPEEYDGGYVQMRLSYSPAAHLFLFLLQWTDCHFAGALGLLRILIYKAYVDGKTTMSLHERKTSIREFYDVLFPSLLQLHGGITDVEERKQKEICDKRYRKKDRTDKGKMSEIDLEREEECGICLEIRNKVVLPTCNHSMCINCYRNWRARSQSCPFCRGSLKRVNSGDLWIYTCSAEIADLPAIYKENLKRLLIYIDKLPLVTSDPNLVPYAPLPR
Self-Ubiquitination (in vitro, with UBA1, UBC8 and ubiquitin, 30° C. for 1 hour; Western blot using MBP- and ubiquitin-specific antibodies): the molecular weight of the AtAIRP2 protein was increased through Western blot using anti-MBP antibody, and the increase was induced due to ubiquitin
